Changes are numbered by the printed parent chain. One block for each molecule: values may come before it.
Key:
[1] = target: cynomolgus monkey TNFR2 overexpressed on CHO-S cells (CHOS-cTNFR2) (cynomolgus monkey); assay: flow cytometry on CHO-S cells overexpressing cynomolgus monkey TNFR2 (negative control), MFI-FL2-A; unit taken from the axis Conc log(nM); the curve stays near the baseline
[2] = target: TNFR2 on human K562 chronic myeloid leukemia cells and on primary human Treg cells (human) (UniProt P20333); assay: flow cytometry on human K562 CML cells (negative control), MFI(FL2); unit taken from the axis Conc log(nM); the curve stays near the baseline and the value lies beyond the highest concentration shown
[3] = target: human TNFR2 overexpressed on CHO-S cells (CHOS-hTNFR2) (human) (UniProt P20333); assay: flow cytometry on CHO-S cells overexpressing human TNFR2 (negative control), MFI-FL2-A; unit taken from the axis Conc log(nM); the curve is flat, so the fit is ambiguous
[4] = target: T1, TNFR2 on human K562 chronic myeloid leukemia cells and on primary human Treg cells (human, UniProt P20333 23-461); assay: flow cytometry on primary human Treg cells, MFI(FL2); unit taken from the axis Conc log(nM)
T1 construct: whole, on cells; also called K562 cells
T1 sequence (looked up): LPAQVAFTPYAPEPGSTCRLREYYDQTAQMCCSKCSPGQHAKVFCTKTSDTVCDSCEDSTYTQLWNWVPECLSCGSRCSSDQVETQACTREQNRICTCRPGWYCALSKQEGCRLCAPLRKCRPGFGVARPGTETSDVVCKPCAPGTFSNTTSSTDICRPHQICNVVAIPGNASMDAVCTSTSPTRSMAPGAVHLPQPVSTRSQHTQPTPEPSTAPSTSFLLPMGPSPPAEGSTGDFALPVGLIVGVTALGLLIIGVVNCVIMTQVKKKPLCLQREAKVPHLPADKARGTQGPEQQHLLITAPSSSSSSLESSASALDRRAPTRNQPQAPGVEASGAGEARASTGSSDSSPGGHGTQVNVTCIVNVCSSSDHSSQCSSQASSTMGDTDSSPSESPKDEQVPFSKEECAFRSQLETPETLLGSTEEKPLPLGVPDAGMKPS
Description: Tregs were prepared as follows: Human PBMC cells ([…], PB005F) were thawed, CD4⁺ CD25⁺ CD127^low cells were sorted by flow cytometry, and Treg cells were isolated. According to CD4⁺:anti-CD3/CD28 Beads=1:1, Dynabeads Human T-Activator CD3/CD28 (Gibco, 11131D) was added, followed by 10 ng/mL recombinant IL2, and the cells were stimulated for 7 days.
(§1) Assay steps: The mixture was centrifuged at 400 g for 5 min, and the cell medium was removed. K562 or Treg cells were resuspended in PBS. After counting, the cells were adjusted to a density of 2×10⁶/mL, and the cell suspension was added to a U-bottom 96-well plate at 100 μL/well. The test antibody was added, subjected to a three-fold gradient dilution, and left to stand on ice for 30 min. The mixture was centrifuged at 300 g for 5 min, and the supernatant was removed. The cells were washed once with PBS. The mixture was centrifuged at 300 g for 5 min, and PBS was removed. 100 μL of PE-anti-human Fc antibody (SOUTHERN BIOTECH, 2040-09) diluted at a ratio of 1:200 was added to each well. The mixture was incubated on ice for 30 min in the dark. The mixture was centrifuged at 400 g for 5 min, and the supernatant was removed. The cells were washed twice with PBS. The cells were resuspended in 100 μL of PBS and assayed by using a flow cytometer (BD, ACCURIC6 plus).

[5] = target: T2, human TNFR2 overexpressed on CHO-S cells (CHOS-hTNFR2) (human, UniProt P20333 23-461); assay: flow cytometry on CHO-S cells overexpressing human TNFR2 (humanized antibodies), MFI-FL2A; unit taken from the axis Conc log(nM)
T2 construct: also called hTNFR2 CHO-S; human TNFR2 molecule overexpressed on CHO-S cells
T2 sequence: T1 sequence (looked up)
Description: In the study, the binding of the antibodies, after being diluted in a gradient, to a stable CHO-S strain line overexpressing human TNFR2 on the surface was assayed by using a flow cytometer.
CHOS-hTNFR2 cells were counted and diluted to 2×10⁶ cells/mL, and added to a U-bottom 96-well plate at 100 μL/well. The mixture was centrifuged at 300 g for 5 min, and the cell medium was removed. Samples (the humanized antibodies hz3C4.7, hz69B1.5, hz69B1.6, hz69B1.11 and hz69B1.20, the chimeric antibody 69B1, and the positive control antibody OPI) (the antibodies were subjected to a three-fold dilution in PBS from the maximum antibody concentration of 300 nM) were added to the U-plate, and the cells were resuspended at 100 μL/well and left to stand on ice for 30 min. The suspension was centrifuged at 400 g for 5 min, and the supernatant was removed. The cells were washed twice with PBS. The mixture was centrifuged at 300 g for 5 min, and PBS was removed. 100 μL of anti-human Fc PE-labeled secondary antibody (SoutherBiotech; 2040-09) (diluted at a 1:100 ratio in PBS) was added to each well and incubated on ice for 30 min in the dark. The mixture was centrifuged at 400 g for 5 min, and the supernatant was removed. The cells were washed 3 times with PBS. The cells were resuspended in 200 μL of 1×PBS and assayed by FACS.

[6] = target: T1, TNFR2 on human K562 chronic myeloid …; assay: flow cytometry on human K562 CML cells, MFI(FL2); unit taken from the axis Conc log(nM)
Description: as §1

[7] = target: T3, hTNFR2 protein (coated on the microplate in the blocking ELISA) (human, UniProt P20333 23-257); assay: blocking ELISA: hTNFR2 coated on the plate, binding of biotinylated TNFα blocked by the antibody; unit taken from the axis Conc log(nM) [A]
T3 construct: The construct coated in the ELISA is not described (it may or may not be the immunogen, Sino biological 10417-H03H)
T3 sequence (looked up): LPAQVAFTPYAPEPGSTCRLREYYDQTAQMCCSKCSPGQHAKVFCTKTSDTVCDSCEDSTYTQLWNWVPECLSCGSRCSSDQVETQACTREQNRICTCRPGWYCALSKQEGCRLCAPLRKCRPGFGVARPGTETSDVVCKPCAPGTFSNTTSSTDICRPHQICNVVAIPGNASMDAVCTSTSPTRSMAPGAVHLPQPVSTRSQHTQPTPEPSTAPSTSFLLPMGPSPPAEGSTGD
Description: (§2) The hTNFR2 protein was resuspended and dissolved to a concentration of 2 μg/mL with PBS, and a microplate was coated with the protein and incubated overnight. The plate was blocked with 5% BSA for 1 h, and a biotinylated antigen (Recombinant Biotinylated TNFα protein (ACRO)) was diluted to 2 μg/mL and added to the plate at 10 μL/well. The antibodies prepared as described above (3C4, 69B1, and 72G8) were each diluted in a gradient starting from the maximum concentration of 300 nM for a total of 8 or 12 dilution gradients. The diluted antibodies were added at 100 μL/well and incubated in PBS on ice for 30 min. The antigen-antibody mixture was incubated in a microplate for 90 min and washed three times with PBS, and the supernatant was discarded. 100 μL of Avidin-HRP (Invitrogen) diluted at a 1:5000 ratio was added to each well, incubated at room temperature for 30 min, and washed six times with PBS. A TMB chromogenic solution (solarbio) was added to the plate at 100 μL/well for color development for 1 min, and the reaction was stopped by adding a stop buffer (solarbio) at 100 μL/well. The plate was read on a microplate reader at OD₄₅₀ and OD₆₂₀.
In a similar manner to that in Example 7, the ability of the humanized antibodies hz3C4.7, hz69b1.5, hz69b1.6, hz69b1.11, and hz69b1.20, and the control antibody OPI to block the binding of human TNFα to hTNFR2 was assayed by ELISA.

[8] = target: T3, hTNFR2 protein (coated on the …); assay: blocking ELISA: hTNFR2 coated on the plate, binding of biotinylated TNFα blocked by the antibody, Avidin-HRP
Description: The ability of the hybridoma antibodies 3C4, 69B1, and 72G8 and the control antibody OPI to block the binding of human TNFα to hTNFR2 was assayed by ELISA.
as §2, with “diluted to 3 μg/mL and” for “diluted to 2 μg/mL and”, “plate at 20 μL/well. The” for “plate at 10 μL/well. The”, “added at 200 μL/well and” for “added at 100 μL/well and”

[9] = target: T2, human TNFR2 overexpressed on CHO-S …; assay: flow cytometry on CHO-S cells overexpressing human TNFR2 (hybridoma antibodies), MFI
Description: In the study, the binding of the hybridoma antibodies (3C4, 69B1, and 72G8) of the present invention, after being diluted in a gradient, to a stable CHO-S cell strain overexpressing human TNFR2 on the surface was assayed by using a flow cytometer.
CHOS-hTNFR2 cells or CHOS-cTNFR2 cells were counted and diluted to 2×10⁶ cells/mL, and added to a U-bottom 96-well plate at 100 μL/well. The mixture was centrifuged at 300 g for 5 min, and the cell medium was removed. The dilutions of the samples (the hybridoma antibodies 3C4, 69B1, and 72G8 and the positive control antibody OPI) (the antibodies were subjected to a two-fold serial dilution in PBS from the maximum antibody concentration of 300 nM) were added to the U-plate, and the cells were resuspended at 100 μL/well and left to stand on ice for 30 min. The suspension was centrifuged at 400 g for 5 min, and the supernatant was removed. The cells were washed twice with PBS. The mixture was centrifuged at 300 g for 5 min, and PBS was removed. […] The mixture was centrifuged at 400 g for 5 min, and the supernatant was removed. The cells were washed 3 times with PBS. The cells were resuspended in 200 μL of 1×PBS and assayed by FACS.

Molecule: IgG (antibody)
- EC50 [1]: 0.00112 µM
- EC50 [2]: 0.0223 µM
- EC50 [3]: 13500 µM

B1: humanized antibody hz69B1.5 (antibody, human IgG1, kappa, V domains shown)
VH: QIQLVQSGSELKKPGASVKVSCKASGYTFTDYSMNWVRQAPGQGLEWMGWLNTETGEPIYADDFKGRFVFSLDTSVSTAYLQISSLKAEDTAVYFCAREAIYYGTSYVLDYWGQGTLVTVSS
VL: DIVLTQSPASLAVSPGQRATITCRASESVEYYGTNFMQWYQQKPGQPPKLLIYSASNVESGVPARFSGSGSGTDFTLTINPVEANDTANYYCQQSRKDPSTFGQGTKLEIKR
- EC50 [4]: 0.0239 nM
- EC50 [5]: 0.000424 µM
- EC50 [6]: 0.0613 nM

B2: humanized antibody hz69B1.6 (antibody, human IgG1, kappa, V domains shown)
VH: QVQLVQSGAEVKKPGASVKVSCKASGYTFTDYSMNWVRQAPGQRLEWMGWLNTETGEPIYADDFKGRVTITRDTSASTAYMELSSLRSEDTAVYYCAREAIYYGTSYVLDYWGQGTLVTVSS
VL: B1 VL with Y91F
- EC50 [5]: 0.000357 µM

B6: hybridoma antibody 3C4 (antibody, V domains shown)
VH: QVQLQQSGPELVKPGASVTISCKASDYSFTNYYIHWVKQRPGQGLEWIGWIYPGNVITKYHEKFKGKAILTADTSSTTAYMQLNSLTSEDSAVYFCARSRATGYFDYWGQGTTLTVSS
VL: DIQMTQTTSSLSASLGDRVTISCRASQDIRNYLNWFQQKPDGTIKLLIYYTSRLHSGVPSRFSGSGSGTDYSLTISNLEQEDMATYFCQQFNTLPWTFGGGTKLEIK
notes: Murine antibody from the hybridoma (detected with anti-mouse IgG)
- IC50 (read off the curve) [8]: ~0.005 µM
- EC50 (read off the curve) [9]: ~0.002 µM

Results, then the molecule that gave them:

- EC50 [4]: 0.0299 nM
- EC50 [5]: 0.00042 µM
- EC50 [6]: 0.0549 nM
B3: humanized antibody hz69B1.20 (antibody, human IgG1, kappa, V domains shown)
VH: B1 VH
VL: B1 VL with N85Q, Y91F

- EC50 [4]: 0.0243 nM
- EC50 [5]: 0.00036 µM
- EC50 [6]: 0.0446 nM
B4: humanized antibody hz69B1.11 (antibody, human IgG1, kappa, V domains shown)
VH: B2 VH
VL: B1 VL with N85Q, Y91F

- EC50 [4]: 0.0599 nM
- IC50 [7]: 0.03 µM
- EC50 [5]: 0.000207 µM
- EC50 [6]: 0.0356 nM
B5: humanized antibody hz3C4.7 (antibody, human IgG1, kappa, V domains shown)
VH: QVQLVQSGAEVKKPGASVKVSCKASDYSFTNYYIHWVRQAPGQGLEWMGWIYPGNVITKYHEKFKGRVTMTADTSTSTAYMELSSLRSEDTAVYYCARSRATGYFDYWGQGTLVTVSS
VL: DIQMTQSPSSLSASVGDRVTITCRASQDIRNYLNWYQQKPGKAPKLLIYYTSRLHSGVPSRFSGSGSGTDYTLTISSLQPEDFATYYCQQFNTLPWTFGGGTKVEIKR

— US20240026019A1 (Innovent, published 2024)
